# According to US6867011B1, “Synthetic bioepitope compounds which can be used as standards in the biological assays of Troponin I” (Bio-Rad Pasteur, priority 1996, dated 2005):
# Columns and labels:
# [1] = Tests of stability of compound 10 solutions stored at +4° C., assayed periodically with the troponin I kit; type: physicochemical; conditions: buffer solutions stored at +4° C.
# Protocol: A compound according to the invention (compound 10) was diluted in water (C=2 mg/ml). From this “stock” solution, four “working” solutions S1, S2, S3 and S4 are obtained.
# To carry out the various dilutions, a 0.1 M sodium succinate buffer solution (pH=6) containing Kathon (0.2%), Re gilait (0.05%) and 2 mM EDTA was used for solutions S1 (C=0.5 ng/ml) and S2 (C=1 ng/ml).
# Solutions S3 (C=0.5 ng/ml) and S4 (C=1 ng/ml) were obtained by diluting the “stock” solution with phosphate buffer (KH2PO4/K2HPO4 pH=7.5) containing Kathon (0.2%), Régilait (0.05%) and 2 mM EDTA.
# Solutions S1, S2, S3 and S4 were assayed, according to the protocol described in Example 2, on D0 (day of preparation of the solutions). The values obtained served as reference for monitoring stability.
# Next, solutions S1, S2, S3 and S4 were stored at +4° C. and assayed periodically. During each series of assays, three “control solutions” were used. They are the freeze-dried troponin I control sera distributed in the assay measuring range. […] During each stability test, it was checked that each of the controls tested was obtained at its target concentration. This therefore made it possible to compare the concentrations obtained for the peptides during the various tests. […]
# [2] = type: physicochemical
# Protocol: This stability study was validated with the aid of compound 6 stored at -20° C. and used as reference. It was checked beforehand that compound 6 is stable when stored at -20° C. for at least 18 months.
Substance,Stability of the solutions [1],Duration stable when stored at −20° C. [2]
"Ac-Asn Tyr Arg Ala Tyr Ala Thr Glu Pro His Ala Lys Lys Lys Ser Lys Gln Lys Met Gln Ala Met Met Gln Ala Leu Leu Gly Ala Arg Ala Lys Glu-NH2 (Ac-NYRAYATEPHAKKKSKQKMQAMMQALLGARAKE-NH2) [Compound 10, Ia with Ξ = Ac-NYRAYA-, Z = -AKKKSK-(QKMQ)1-AMMQA-, Ψ = -AKE-NH2]",excellent stability,
Ac-Gly Asn Tyr Arg Ala Tyr Ala Thr Glu Pro His Ala Lys Lys -NH-(CH2)5-CO-Ala Met Met Gln Ala Leu Leu Gly Ala Arg Ala Lys Glu-NH2 [Compound 6],,at least 18 months
